The target in experiment [1] is T1, recombinant human soluble gpNMB (recombinant human gpNMB-FLAG-His) (human, UniProt Q14956 23-498).
T1 sequence: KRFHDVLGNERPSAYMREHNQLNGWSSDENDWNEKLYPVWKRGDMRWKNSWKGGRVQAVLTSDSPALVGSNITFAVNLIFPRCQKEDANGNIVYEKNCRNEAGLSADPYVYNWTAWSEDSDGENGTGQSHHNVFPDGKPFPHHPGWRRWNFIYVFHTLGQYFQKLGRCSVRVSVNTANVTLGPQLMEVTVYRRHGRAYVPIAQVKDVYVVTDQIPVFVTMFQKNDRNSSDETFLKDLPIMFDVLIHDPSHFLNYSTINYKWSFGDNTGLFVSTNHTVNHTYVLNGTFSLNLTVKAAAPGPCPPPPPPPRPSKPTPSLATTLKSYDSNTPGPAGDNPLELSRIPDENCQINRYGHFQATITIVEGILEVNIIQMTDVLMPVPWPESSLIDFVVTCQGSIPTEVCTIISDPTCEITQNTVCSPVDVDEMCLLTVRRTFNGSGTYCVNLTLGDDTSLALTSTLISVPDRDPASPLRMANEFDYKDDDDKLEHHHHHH
The experiment is described as follows: antigen ELISA, vs hGPN18-2_H2L3.

Experiment [2] has as its target T1, recombinant human soluble gpNMB …. Kind of experiment: antigen ELISA.
The target is the same in experiment [3]. Kind of experiment: antigen ELISA. The source holds these as a separate data set.
For experiment [4] the target is unchanged. Kind of experiment: antigen ELISA, vs hGPN06-1_H1L1.

Read-outs that look alike come from different tables or passages of the source.

B1: hGPN18-2_H2L3 VH Y105A (antibody, V domains shown)
VH: QVQLVQSGPGLVQPTQTLTLTCSFSGFSLSTSVMGVGWIRQPSGKGLEWLADIWWDDDKDYNPSLKSRLTISKDTSKNQVVLTMTNMDTVDTATYYCARTYYSNAEYYGMDYWGQGTLVTVSS
VL: DIVMTQSPDSLAVSLGERATINCRSSQTIILSNGNTYLEWYQQKPGQPPKLLIYKVSNRFSGVPDRFSGSGSGTDFTLTISSLQAEDVAVYYCFQGSHVPFTFGSGTKLEIKR
With B1, the Relative binding activity in experiment [1] is 0.47. Also, the EC50 in experiment [2] turned out to be 15.6 nM.

B2: hGPN18-2_H2L3 VH Y108A (antibody, V domains shown)
VH: QVQLVQSGPGLVQPTQTLTLTCSFSGFSLSTSVMGVGWIRQPSGKGLEWLADIWWDDDKDYNPSLKSRLTISKDTSKNQVVLTMTNMDTVDTATYYCARTYYSNYEYAGMDYWGQGTLVTVSS
VL: DIVMTQSPDSLAVSLGERATINCRSSQTIILSNGNTYLEWYQQKPGQPPKLLIYKVSNRFSGVPDRFSGSGSGTDFTLTISSLQAEDVAVYYCFQGSHVPFTFGSGTKLEIKR
On to B2, for which the Relative binding activity in experiment [1] was 0.91. Besides, in experiment [2], the EC50 was found to be 4.7 nM.

B3: hGPN18-2_H2L3 VH Y112A (antibody, V domains shown)
VH: QVQLVQSGPGLVQPTQTLTLTCSFSGFSLSTSVMGVGWIRQPSGKGLEWLADIWWDDDKDYNPSLKSRLTISKDTSKNQVVLTMTNMDTVDTATYYCARTYYSNYEYYGMDAWGQGTLVTVSS
VL: DIVMTQSPDSLAVSLGERATINCRSSQTIILSNGNTYLEWYQQKPGQPPKLLIYKVSNRFSGVPDRFSGSGSGTDFTLTISSLQAEDVAVYYCFQGSHVPFTFGSGTKLEIKR
Turning to B3, in experiment [1], the Relative binding activity stood at 1.05. Moreover, the EC50 in experiment [2] was 3.73 nM.

B4: hGPN18-2_H2L3 VH Y107A (antibody, V domains shown)
VH: QVQLVQSGPGLVQPTQTLTLTCSFSGFSLSTSVMGVGWIRQPSGKGLEWLADIWWDDDKDYNPSLKSRLTISKDTSKNQVVLTMTNMDTVDTATYYCARTYYSNYEAYGMDYWGQGTLVTVSS
VL: DIVMTQSPDSLAVSLGERATINCRSSQTIILSNGNTYLEWYQQKPGQPPKLLIYKVSNRFSGVPDRFSGSGSGTDFTLTISSLQAEDVAVYYCFQGSHVPFTFGSGTKLEIKR
B4: the Relative binding activity in experiment [1] came out at 0.06. In addition, the EC50 in experiment [2] came to 60.9 nM.

B5: hGPN06-1_H1L1 VH D110A (antibody, V domains shown)
VH: QVQLVQSGAEVKKPGASVKVSCKASGYTFTDNWMGWVKQRPGQGLEWIGAIDPSDSFTNYNQNFKGRVTMTVDTSISTAYMELSRLRSDDSAVYFCTRSGYYGSPKLGGAYWGQGTLVTVSS
VL: EIVLTQSPSSLSASVGDRVTITCSASSSISYMHWYQQKSGTAPKLLIYSTSNLASGVPSRFSGSGSGTDFTFTISSLQPEDAATYYCHQWNSYPCTFGGGTKLEIK
With B5, the EC50 in experiment [3] was found to be 0.956 nM. Moreover, the Relative binding activity in experiment [4] amounted to 0.79.

B6: hGPN06-1_H1L1 VH R98A (antibody, V domains shown)
VH: QVQLVQSGAEVKKPGASVKVSCKASGYTFTDNWMGWVKQRPGQGLEWIGAIDPSDSFTNYNQNFKGRVTMTVDTSISTAYMELSRLRSDDSAVYFCTASGYYGSPKLGGDYWGQGTLVTVSS
VL: EIVLTQSPSSLSASVGDRVTITCSASSSISYMHWYQQKSGTAPKLLIYSTSNLASGVPSRFSGSGSGTDFTFTISSLQPEDAATYYCHQWNSYPCTFGGGTKLEIK
For B6, the EC50 in experiment [3] worked out at 53.2 nM. The Relative binding activity in experiment [4] was 0.05.

B7: hGPN06-1_H1L1 VH S99A (antibody, V domains shown)
VH: QVQLVQSGAEVKKPGASVKVSCKASGYTFTDNWMGWVKQRPGQGLEWIGAIDPSDSFTNYNQNFKGRVTMTVDTSISTAYMELSRLRSDDSAVYFCTRAGYYGSPKLGGDYWGQGTLVTVSS
VL: EIVLTQSPSSLSASVGDRVTITCSASSSISYMHWYQQKSGTAPKLLIYSTSNLASGVPSRFSGSGSGTDFTFTISSLQPEDAATYYCHQWNSYPCTFGGGTKLEIK
With B7, the EC50 in experiment [3] was found to be 0.587 nM. The Relative binding activity in experiment [4] stood at 0.92.

B8: hGPN06-1_H1L1 VH L107A (antibody, V domains shown)
VH: QVQLVQSGAEVKKPGASVKVSCKASGYTFTDNWMGWVKQRPGQGLEWIGAIDPSDSFTNYNQNFKGRVTMTVDTSISTAYMELSRLRSDDSAVYFCTRSGYYGSPKAGGDYWGQGTLVTVSS
VL: EIVLTQSPSSLSASVGDRVTITCSASSSISYMHWYQQKSGTAPKLLIYSTSNLASGVPSRFSGSGSGTDFTFTISSLQPEDAATYYCHQWNSYPCTFGGGTKLEIK
On to B8, for which the EC50 in experiment [3] came to 1.05 nM. The Relative binding activity in experiment [4] was found to be 0.71.

B9: hGPN06-1_H1L1 VH K106A (antibody, V domains shown)
VH: QVQLVQSGAEVKKPGASVKVSCKASGYTFTDNWMGWVKQRPGQGLEWIGAIDPSDSFTNYNQNFKGRVTMTVDTSISTAYMELSRLRSDDSAVYFCTRSGYYGSPALGGDYWGQGTLVTVSS
VL: EIVLTQSPSSLSASVGDRVTITCSASSSISYMHWYQQKSGTAPKLLIYSTSNLASGVPSRFSGSGSGTDFTFTISSLQPEDAATYYCHQWNSYPCTFGGGTKLEIK
Take B9: the EC50 in experiment [3] stood at 0.441 nM. The Relative binding activity in experiment [4] is 1.

B10: hGPN06-1_H1L1 VH G109A (antibody, V domains shown)
VH: QVQLVQSGAEVKKPGASVKVSCKASGYTFTDNWMGWVKQRPGQGLEWIGAIDPSDSFTNYNQNFKGRVTMTVDTSISTAYMELSRLRSDDSAVYFCTRSGYYGSPKLGADYWGQGTLVTVSS
VL: EIVLTQSPSSLSASVGDRVTITCSASSSISYMHWYQQKSGTAPKLLIYSTSNLASGVPSRFSGSGSGTDFTFTISSLQPEDAATYYCHQWNSYPCTFGGGTKLEIK
Take B10: in experiment [3], the EC50 turned out to be 4.89 nM. For the same molecule, the Relative binding activity in experiment [4] worked out at 0.34.

B11: hGPN06-1_H1L1 VH Y101A (antibody, V domains shown)
VH: QVQLVQSGAEVKKPGASVKVSCKASGYTFTDNWMGWVKQRPGQGLEWIGAIDPSDSFTNYNQNFKGRVTMTVDTSISTAYMELSRLRSDDSAVYFCTRSGAYGSPKLGGDYWGQGTLVTVSS
VL: EIVLTQSPSSLSASVGDRVTITCSASSSISYMHWYQQKSGTAPKLLIYSTSNLASGVPSRFSGSGSGTDFTFTISSLQPEDAATYYCHQWNSYPCTFGGGTKLEIK
Take B11: the EC50 in experiment [3] was 0.502 nM. The Relative binding activity in experiment [4] is 1.04.

B12: hGPN06-1_H1L1 VH G103A (antibody, V domains shown)
VH: QVQLVQSGAEVKKPGASVKVSCKASGYTFTDNWMGWVKQRPGQGLEWIGAIDPSDSFTNYNQNFKGRVTMTVDTSISTAYMELSRLRSDDSAVYFCTRSGYYASPKLGGDYWGQGTLVTVSS
VL: EIVLTQSPSSLSASVGDRVTITCSASSSISYMHWYQQKSGTAPKLLIYSTSNLASGVPSRFSGSGSGTDFTFTISSLQPEDAATYYCHQWNSYPCTFGGGTKLEIK
Regarding B12, the EC50 in experiment [3] is 0.762 nM. Besides, the Relative binding activity in experiment [4] was 1.14.

B13: hGPN06-1_H1L1 VH P105A (antibody, V domains shown)
VH: QVQLVQSGAEVKKPGASVKVSCKASGYTFTDNWMGWVKQRPGQGLEWIGAIDPSDSFTNYNQNFKGRVTMTVDTSISTAYMELSRLRSDDSAVYFCTRSGYYGSAKLGGDYWGQGTLVTVSS
VL: EIVLTQSPSSLSASVGDRVTITCSASSSISYMHWYQQKSGTAPKLLIYSTSNLASGVPSRFSGSGSGTDFTFTISSLQPEDAATYYCHQWNSYPCTFGGGTKLEIK
For the molecule B13, the EC50 in experiment [3] came out at 1.18 nM. Moreover, the Relative binding activity in experiment [4] came to 1.09.

B14: hGPN06-1_H1L1 VH S104A (antibody, V domains shown)
VH: QVQLVQSGAEVKKPGASVKVSCKASGYTFTDNWMGWVKQRPGQGLEWIGAIDPSDSFTNYNQNFKGRVTMTVDTSISTAYMELSRLRSDDSAVYFCTRSGYYGAPKLGGDYWGQGTLVTVSS
VL: EIVLTQSPSSLSASVGDRVTITCSASSSISYMHWYQQKSGTAPKLLIYSTSNLASGVPSRFSGSGSGTDFTFTISSLQPEDAATYYCHQWNSYPCTFGGGTKLEIK
For B14, in experiment [3], the EC50 stood at 0.712 nM. In experiment [4], the Relative binding activity was 0.88.

B15: hGPN06-1_H1L1 VH G108A (antibody, V domains shown)
VH: QVQLVQSGAEVKKPGASVKVSCKASGYTFTDNWMGWVKQRPGQGLEWIGAIDPSDSFTNYNQNFKGRVTMTVDTSISTAYMELSRLRSDDSAVYFCTRSGYYGSPKLAGDYWGQGTLVTVSS
VL: EIVLTQSPSSLSASVGDRVTITCSASSSISYMHWYQQKSGTAPKLLIYSTSNLASGVPSRFSGSGSGTDFTFTISSLQPEDAATYYCHQWNSYPCTFGGGTKLEIK
Turning to B15, the EC50 in experiment [3] turned out to be 0.476 nM. Further, the Relative binding activity in experiment [4] worked out at 0.96.

B16: hGPN06-1_H1L1 VH T97A (antibody, V domains shown)
VH: QVQLVQSGAEVKKPGASVKVSCKASGYTFTDNWMGWVKQRPGQGLEWIGAIDPSDSFTNYNQNFKGRVTMTVDTSISTAYMELSRLRSDDSAVYFCARSGYYGSPKLGGDYWGQGTLVTVSS
VL: EIVLTQSPSSLSASVGDRVTITCSASSSISYMHWYQQKSGTAPKLLIYSTSNLASGVPSRFSGSGSGTDFTFTISSLQPEDAATYYCHQWNSYPCTFGGGTKLEIK
On to B16, for which the EC50 in experiment [3] is 0.36 nM. Besides, the Relative binding activity in experiment [4] came to 0.98.

B17: hGPN06-1_H1L1 VH G100A (antibody, V domains shown)
VH: QVQLVQSGAEVKKPGASVKVSCKASGYTFTDNWMGWVKQRPGQGLEWIGAIDPSDSFTNYNQNFKGRVTMTVDTSISTAYMELSRLRSDDSAVYFCTRSAYYGSPKLGGDYWGQGTLVTVSS
VL: EIVLTQSPSSLSASVGDRVTITCSASSSISYMHWYQQKSGTAPKLLIYSTSNLASGVPSRFSGSGSGTDFTFTISSLQPEDAATYYCHQWNSYPCTFGGGTKLEIK
B17: the EC50 in experiment [3] was 65.8 nM. In addition, the Relative binding activity in experiment [4] was determined as 0.06.

Source of the values: patent EP4772193A1 (Teijin Pharma Limited, dated 2026).
